For the experiment, the target named is Acanthamoeba actin (Acanthamoeba).

Regarding Acanthamoeba actin (natural protein), the association rate constant (kon) worked out at 7.8e+06 M⁻¹ s⁻¹.

For orientation: kon means a measure of how fast the partners come together. Read a high kon as faster complex formation.
